Measurements from the supplement of paper PMC9170038.

Tested on: MS2 coat protein
Experiment: apparent KD of MS2 coat protein; higher = weaker reporter binding
Details: Eterna round: R107
In short: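 Titration buffer: 100 mM Tris-HCl pH 7.5, 80 mM KCl, 4 mM MgCl2, without or with constant ligand. Designed RNA switches transcribed on-chip from Illumina sequencing clusters received SNAP-549-labelled MS2 coat protein in twofold steps from 0.7 or 1.5 nM to 3 µM. Apparent KD is the median per design of fits to normalised cluster binding curves.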

[1] = input ligand: theophylline 20 uM
[2] = input ligand: tryptophan 2.4 mM
[3] = input ligand: theophylline 2 mM

Sequence | apparent KD of MS2 coat protein (input ligand: arginine 13.2 mM) | apparent KD of MS2 coat protein [1] | apparent KD of MS2 coat protein [2] | apparent KD of MS2 coat protein [3] | apparent KD of MS2 coat protein (input ligand: none)
AGAUCUUUCGAAAGAAGGAUCUUGGCUGAUACCAGAGACGAAAGUCUCCCUUGGCAGCAGUGCCAACAUGAGGAUCACCCAUGUA [Theophylline A 13] | 35 nM | 49.9 nM | 42.9 nM | – | –
AGAUUCGACACGGCCGCCACUCGUGCCGGAUUACCGAGUGUCGAACAUGAGGAUCACCCAUGUACGAGGACCGGGUGUUGAGUCU [XTryp B #17] | 35.1 nM | 53.9 nM | – | 48.1 nM | –
CACGAAAGAUCGGCCGCCACUCAUGUUUCUUACAUGAGGAUCACCCAUGUAUUUUCUUUCUUUUAGAGGACCGGGAUUGAGCGUG [SSTB #1] | 117 nM | 197 nM | – | 199 nM | –
GUCCUCAUGACGGCCGCCACUAAACAUGAGGAUCACCCAUGUAAUGAUCCAUUAAAUGAUAAUAGUAGGACCGGGUCAAAAUAAA [Same State Typptophan B GF11] | 135 nM | 833 nM | – | 979 nM | –
UUAAUCAUGUUAGAAAACUAAUAUGCAGAAGGAGCGUGAUAAAACACAGGUAGGUCGCUGAAGGGAACAUGAGGAUCACCCAUGU [AstrosSSArgA#9] | 42.8 nM | 43.6 nM | 34.8 nM | 37.3 nM | 37 nM
AAAGGUCGGACGGCCGCCACUGGCUAGGUGGGUUCCGGGAUUACAUGAGGAUCACCCAUGUAUACCAGGACCGGGUUCGCCUCGU [Lageonor] | 9.51 nM | 12.2 nM | 17.8 nM | 8.28 nM | 11.9 nM
GGUAUGUAUUCGGAAACGAAUGCAUACCAACGAGGACCGGUACGGCCGCCACUCGCGGCUGAUCAACAUGAGGAUCACCCAUGUA [Ex Tryptophan A 4] | 19.4 nM | 33 nM | 28.4 nM | 31.5 nM | 24.8 nM
AGCGGAACGGAAGGGUCCCAAAAUUGUGAUACCAGCCUUGAAUCCGGCCCUUGGCAGCACAUGAGGAUCACCCAUGUACUGCGGU [Celate] | 11.1 nM | 24.6 nM | 14.4 nM | 123 nM | 11 nM
UGCCGAGACGUGGAUUACCCGUGUACCGAAGGAGCGCCCGAAAGGGCAGGUAGGUCGCGGAGGACAUGAGGAUCACCCAUGUCGA | 37.3 nM | 93.5 nM | 83.7 nM | 65 nM | 52.1 nM
ACACAUGAGGGAAGGAGCGCCAUGAACACACAUGAGGAUCACCCAUGUUUUUUUUGUGUUUGGCAGGUAGGUCGCCCACAUGAGG [Same State Arginine B 2] | 7.38 nM | 22.5 nM | 7.57 nM | 9.33 nM | 10.1 nM
AAACAUUGCUCAGAUACCAGACAUGAGGAUCACCCAUGUACCAAGGUACCCGAAAGGAAUGUCCCUUGGCAGCUGAGCAAUGAAA [MAT - Exclusion Theophlline B - Mod of Eli - D20] | 10.9 nM | 11.9 nM | 9.51 nM | – | –
CCGAACAUGAGGAUCACCCAUGUAUCCGAGCGAGGACCGGUACGGCCGCCACUCGAACUGCACCGGAAAAGGGAAACACCGAUCC [theeternabot_sameState_MS2_Trp_A_9] | 33.4 nM | 95.7 nM | – | 69.3 nM | –
GGGACAUCGGGAAGGAGCGCAUCCAAACCACACAUGAGGAUCACCCAUGUAUAAAUAUGCAUGCAGGUAGGUCGCCCGGUGCCUC [Axeenza] | 44.2 nM | 131 nM | 101 nM | 123 nM | 114 nM
AAAACAUGAGGAUCACCCAUGUACAUGGGUCGAGGACCGGUACGGCCGCCACUCGCCGCCCGCCCGCCCGCCACCUCUCCCGCCC | 34.7 nM | 173 nM | – | 160 nM | –
AGUAGUUGACAAAAGUCAGCUACAACUGAAGGAGCGGGUGGGUGCCCAGGUAGGUCGCGGAAACAUGAGGAUCACCCAUGUAUAA [ArgAS 1 #BothOrNeither #OpenEnded] | 37.3 nM | 19.4 nM | 21.7 nM | 21.7 nM | 13.1 nM
AGAGUUAGACAAAAGUCUAGCUCACCAGAAGGAGCGUCCGAAAGGACAGGUAGGUCGCUGGUACACGAGGAUCACCCGUGUUCCU [ArgAS 16 #OpenEnded #AlternativeMS2] | 27.6 nM | 40.4 nM | 36.8 nM | 50.3 nM | 38.6 nM
AUACAUGAGUGUUUGAUUAUAGAAACUGAAGGAGCGUGGUAGUACACAGGUAGGUCGCAGUAAAUACAUGAGGAUCACCCAUGUU [JR_Nu_SSArginiA_Sub026] | 29.2 nM | 36.5 nM | 38.4 nM | 36.5 nM | 32.9 nM
CGCUACGUAACUGAUACCAGUGUACUGACAUGAGGAUCACCCAUGUUGGGUUUUGUUGUACACCCUUGGCAGCAGAAUCGUAGCG [AstrosExyTheB#13] | 58.7 nM | 79.2 nM | 61.3 nM | – | –

Sequence | apparent KD of MS2 coat protein (input ligand: arginine 13.2 mM) | apparent KD of MS2 coat protein [1] | apparent KD of MS2 coat protein [2] | apparent KD of MS2 coat protein [3] | apparent KD of MS2 coat protein (input ligand: none)
UGGUACUAGGCGGCCGCCACUGGGUGAUACAUGAGGAUCACCCAUGUUUAAUGCCGAGAGGCAACCAGGACCGGGCCUAGUACAU | 139 nM | 366 nM | 19.5 nM | 473 nM | 327 nM
UGACAUUGCUCAGAUACCAGACAUGAGGAUCACCCAUGUACCAAGGUAAGAAAAUAACAUGUCCCUUGGCAGCUGAGCAAUGUCU [First try #MS2Left #Theo2] | 16.4 nM | 38.4 nM | 14.6 nM | – | –
CCAAGCAUAAUAGAUACCAGUCGUAUACCUCCAACAUGAGGAUCACCCAUGUGCUCAGUUGACCCUUGGCAGCUAUGCCUAUAGA [theeternabot_sameState_MS2_Theo_B_1] | 37.4 nM | 53.3 nM | 38.2 nM | – | –
AGCCGCGUUCUUUCUUUCUUUCUAGCGGCACGAGGACCGGUACGGCCGCCACUCGAAGACAUGAGGAUCACCCAUGUAGUGGGUA [The Second Ring] | 47.4 nM | 142 nM | 206 nM | 109 nM | 123 nM
GUCACCAGGAGAAGGAGCGUGAAGACAUGAGGAUCACCCAUGUAGAGGCGCCGACGGCGUUCGCAGGUAGGUCGCUCCUGGUGAC [#1 Same State - Arginine B Attempt #17 (HarryS)] | 22 nM | 35.2 nM | 20.4 nM | 26.6 nM | 20.5 nM
CCGUUUUAUGGCGACAUAGGGCGGACUGAAGGAGCGGGAUAAAACCCAGGUAGGUCGCAGAGAUCCACAUGAGGAUCACCCAUGU [!0.X] | 35.9 nM | 54.5 nM | 35.9 nM | 32.8 nM | 38 nM
UGAGUUAGACAAAAGUCUAGCUCUGGUGAAGGAGCGUCCGAAAGGACAGGUAGGUCGCACCACCUGAGGAUCACCCAGGUUCCUA [ArgAS 14 #OpenEnded #AlternativeMS2] | 28.5 nM | 29.8 nM | 38.9 nM | 57.2 nM | 42.1 nM
GCACAAGAUGGAAGGAGCGCUGGGAAAGGUCACAUGAGGAUCACCCAUGUUCUCCUUGCCGAGCAGGUAGGUCGCCAUCUUGUGC [SSAB NP+V+V2 #2] | 30.4 nM | 50 nM | 33.9 nM | 56.1 nM | 37.8 nM
AACAACAAGGGAAGGAGCGCGAAUUAUAGACAUGAGGAUCACCCAUGUAACAUGGGAUUAACGCAGGUAGGUCGCCCACAAACAA [#08 Exclusion - Arginine B] | 80.5 nM | 237 nM | 117 nM | 177 nM | 162 nM
GGAAAAGAAAGAAAAGAAAUCCCUCCCUCCCGAGGACCGGUACGGCCGCCACUCGCCCUCCCUCCCACAUGAGGAUCACCCAUGU [Exclusion - Trytophan A] | 23.7 nM | 31.3 nM | – | 27.8 nM | –
GAUGAACUAUAUGAUACCAGACAACAUGAGGAUCACCCAUGUGUAAGUCGUCCUCUGCCUGUCCCUUGGCAGCGUAUAGUUUAUC [XTheo B #18] | 43.2 nM | 76.4 nM | 23.3 nM | – | –
UGUAACAUGAGGAUCACCCAUGUGAGUGAUACCAGACUAGUGUUAGUCCCUUGGCAGCACGCUGGACAAAUGUGUAGUCUAUGCG [Same State - Theophylline A (Freestyle 20)] | 40.2 nM | 112 nM | 70.5 nM | 62.6 nM | 72.7 nM
ACAUGAGGAUCACCCAUGUUCCUCAUUGAUACCAGUGAAAGAAGACGCCCUUGGCAGCGAGAAGAAGAAGAAGAAGAAGAAGAGG [6.A] | 48.4 nM | 425 nM | 588 nM | 671 nM | 725 nM
GAGGAAACUCACAUGAGGAUCACCCAUGUACGAGGACCGGUACGGCCGCCACUCGAAACCAUGGGCGGUUGUACAUGGAAACAUG [Design 2] | 21.4 nM | 33.3 nM | – | 34.9 nM | –
GCACCAGGUACGGAUACCAGCUGCCACGGUUACAUGAGGAUCACCCAUGUGAUAAGGUGUAGCCCUUGGCAGCUGUACCUGGUGC [SSThB NP+V+V2 #7 +-Same Structure] | 96.9 nM | 500 nM | 258 nM | 411 nM | 142 nM
UCCUGCAGAGCGGCCGCCACUGUAUUGCGUGAGGAUGACCCAACAUGAGGAUCACCCAUGUUGUUUAGGACCGGGCUUGCCACCA [lkpmullin] | 16.7 nM | 18.5 nM | 18.2 nM | 18.1 nM | 14.2 nM
AUCGUACCUAAUGAUACCAGCAAGUGAUCAUAACAUGAGGAUCACCCAUGUAAUCAGUGAUGCCCUUGGCAGCAUAAUCGAUACA [Same State - Theophylline B (Freestyle 3)] | 103 nM | 170 nM | 129 nM | – | –
GUGACUUAAAGGCGCCAUUUGUGAUAGGAAGGAGCGGCGAAAUAGCCAGGUAGGUCGCCUAUACAUGAGGAUCACCCAUGUCACC [XARG-A 26] | 48.7 nM | 84.4 nM | 73.7 nM | 123 nM | 98.5 nM
